Read-outs that look alike come from different tables or passages of the source.
Legend:
[1] = biological target: T1, human 5T4 on the cell surface (human, UniProt Q13641 32-420); assay: flow cytometry on Detroit 562 cells (21,000 5T4 per cell)
T1 construct: whole, on cells; also called h5T4; TPBG
T1 sequence (looked up): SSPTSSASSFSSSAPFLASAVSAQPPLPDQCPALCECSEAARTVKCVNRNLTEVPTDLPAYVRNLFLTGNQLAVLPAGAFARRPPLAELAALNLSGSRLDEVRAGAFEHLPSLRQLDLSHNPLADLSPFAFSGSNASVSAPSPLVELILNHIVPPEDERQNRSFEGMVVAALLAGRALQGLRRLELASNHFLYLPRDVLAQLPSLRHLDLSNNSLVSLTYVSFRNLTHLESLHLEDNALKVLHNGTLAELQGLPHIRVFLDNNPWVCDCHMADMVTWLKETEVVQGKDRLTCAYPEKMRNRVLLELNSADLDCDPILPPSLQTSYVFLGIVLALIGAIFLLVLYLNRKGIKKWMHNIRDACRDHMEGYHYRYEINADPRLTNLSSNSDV

[2] = biological target: T1, human 5T4 on the cell surface; assay: flow cytometry on H292 cells (12,000 5T4 per cell)
[3] = biological target: T1, human 5T4 on the cell surface; assay: flow cytometry on FaDu cells (22,000 5T4 per cell)
[4] = biological target: T1, human 5T4 on the cell surface; assay: cell binding assay on 5T4-expressing tumor cells (cell line not given)
[5] = biological target: T2, human 5T4 (SPR and epitope mapping, construct not stated) (human, UniProt Q13641 32-355, limits assumed); assay: SPR, kinetics fit
T2 construct: also called h5T4
T2 sequence (looked up): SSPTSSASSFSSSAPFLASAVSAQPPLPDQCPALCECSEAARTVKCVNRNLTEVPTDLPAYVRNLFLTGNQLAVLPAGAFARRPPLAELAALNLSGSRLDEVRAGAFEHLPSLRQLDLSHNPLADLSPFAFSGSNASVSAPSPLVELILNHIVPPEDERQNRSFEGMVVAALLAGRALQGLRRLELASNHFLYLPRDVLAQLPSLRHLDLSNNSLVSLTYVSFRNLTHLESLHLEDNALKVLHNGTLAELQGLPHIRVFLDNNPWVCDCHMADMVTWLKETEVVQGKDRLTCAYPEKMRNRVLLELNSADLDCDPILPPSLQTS

Human CD16aV = biological target: T3, Human CD16aV (human, UniProt P08637 17-208); assay: SPR, kinetics fit
T3 construct: position 158 counts on the mature protein
T3 sequence (P08637 17-208 F176V): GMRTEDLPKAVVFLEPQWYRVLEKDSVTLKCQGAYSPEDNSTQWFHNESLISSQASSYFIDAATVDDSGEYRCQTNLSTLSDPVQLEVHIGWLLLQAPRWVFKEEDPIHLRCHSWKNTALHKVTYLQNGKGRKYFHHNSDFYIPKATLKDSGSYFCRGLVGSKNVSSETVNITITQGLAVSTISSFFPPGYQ

[6] = biological target: T4, human NKG2D (recombinant, construct not stated) (human, UniProt P26718 78-216, limits assumed); assay: SPR, kinetics fit
T4 construct: also called hNKG2D
T4 sequence (looked up): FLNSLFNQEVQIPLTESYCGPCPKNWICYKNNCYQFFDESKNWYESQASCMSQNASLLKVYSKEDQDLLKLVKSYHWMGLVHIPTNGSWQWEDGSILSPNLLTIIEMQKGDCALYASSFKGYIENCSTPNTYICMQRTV

[7] = biological target: T2, human 5T4 (SPR and epitope mapping, …); assay: SPR, h5T4 binding; sample oxidised in PBS 0.02% H2O2, 24 hrs RT
[8] = biological target: T2, human 5T4 (SPR and epitope mapping, …); assay: SPR, h5T4 binding; control sample, HST pH 6, 7 days 4 °C
[9] = biological target: T1, human 5T4 on the cell surface; assay: cell binding assay on 5T4-expressing tumor cells (cell line not given); remark: listed apart in the source
[10] = biological target: T1, human 5T4 on the cell surface; assay: flow cytometry on KYSE-30 cells (61,000 5T4 per cell)
[11] = biological target: T1, human 5T4 on the cell surface; assay: flow cytometry on 786-O cells (18,000 5T4 per cell)
[12] = biological target: T2, human 5T4 (SPR and epitope mapping, …); assay: SPR, Biacore 8K, 37 °C, TriNKET captured on anti-hFc chip, pH 7.4
Experimental: Briefly, SPR was performed using a Biacore 8K instrument at physiological temperature of 37° C. Briefly, human Fc specific antibodies were covalently immobilized at a density of about 8000-10000 resonance units (RU) on carboxy methyl dextran matrix of a CM5 biosensor chip to create an anti-hFc IgG chip. Samples were injected on the anti-hFc IgG chip at a flow rate of 10 μL/min for 60 seconds. Protein was serially diluted (300 nM-0.14 nM) in three-fold dilutions with running buffer and injected at a flow rate of 30 μl/min over the captured test articles. Association was monitored for 240-300 seconds, and dissociation was monitored for 300-900 seconds. Surfaces were regenerated between cycles with three pulses of 10 mM glycine-HCl (pH 1.7) injected for 20 seconds at 100 μL/min.

[13] = biological target: T2, human 5T4 (SPR and epitope mapping, …); assay: SPR, h5T4 binding; sample stressed in HST pH 6, 7 days 50 °C
[14] = biological target: T1, human 5T4 on the cell surface; assay: flow cytometry on HCT116 cells (14,000 5T4 per cell)

EC50 [1]: 2.7 nM
EC50 [2]: 1.5 nM
EC50 [3]: 7.1 nM
EC50 [4]: 5.33 nM
Max Fold Over Background (FOB) [4]: 85 fold over background
Kd [5]: 6.1 nM
koff [5]: 0.00077 s⁻¹
kon [5]: 130000 M⁻¹ s⁻¹
Kd (Human CD16aV): 112 nM
koff (Human CD16aV): 0.017 s⁻¹
kon (Human CD16aV): 150000 M⁻¹ s⁻¹
Kd [6]: 370 nM
koff [6]: 0.088 s⁻¹
kon [6]: 240000 M⁻¹ s⁻¹
Kd [7]: 7 nM
koff [7]: 0.00086 s⁻¹
kon [7]: 120000 M⁻¹ s⁻¹
Kd [8]: 7.8 nM
koff [8]: 0.00091 s⁻¹
kon [8]: 120000 M⁻¹ s⁻¹
EC50 [9]: 3.42 nM
Max Fold Over Background (FOB) [9]: 82.8 fold over background
EC50 [10]: 2.5 nM
EC50 [11]: 2.7 nM
Kd [12]: 6.1 nM
koff [12]: 0.00077 s⁻¹
kon [12]: 130000 M⁻¹ s⁻¹
Kd [13]: 7.6 nM
koff [13]: 0.00088 s⁻¹
kon [13]: 110000 M⁻¹ s⁻¹
EC50 [14]: 2.1 nM
B1: AB1310/AB1783-TriNKET® (bispecific antibody, human IgG1, kappa)
chain: DIQLTQSPSSLSASVGDRVTITCRASQSVTTSNYNYMHWFQQKPGKAPKLLIKFASNLESGVPSRFSGSGSGTDFTLTISSLQPEDFATYYCQHSWEIPWTFGCGTKVEIKGGGGSGGGGSGGGGSGGGGSEVQLVESGGGLVKPGGSLRLSCAASRFTFSDFGMHWVRQAPGKCLEWVSYISSGSSTIYYADSVKGRFTISRDNAKNSLYLQMNSLRAEDTAVYYCASSQSYYRGTLDYWGQGTTVTVSSASDKTHTCPPCPAPELLGGPSVFLFPPKPKDTLMISRTPEVTCVVVDVSHEDPEVKFNWYVDGVEVHNAKTKPREEQYNSTYRVVSVLTVLHQDWLNGKEYKCKVSNKALPAPIEKTISKAKGQPREPRVYTLPPCRDELTKNQVSLTCLVKGFYPSDIAVEWESNGQPENNYKTTPPVLVSDGSFTLYSKLTVDKSRWQQGNVFSCSVMHEALHNHYTQKSLSLSPG
heavy: EVQLVESGGGLVKPGGSLRLSCAASGFTFSSYSMNWVRQAPGKGLEWVSSISSSSSYIYYADSVKGRFTISRDNAKNSLYLQMNSLRAEDTAVYYCARGAPIGAAAGWFDPWGQGTLVTVSSASTKGPSVFPLAPSSKSTSGGTAALGCLVKDYFPEPVTVSWNSGALTSGVHTFPAVLQSSGLYSLSSVVTVPSSSLGTQTYICNVNHKPSNTKVDKKVEPKSCDKTHTCPPCPAPELLGGPSVFLFPPKPKDTLMISRTPEVTCVVVDVSHEDPEVKFNWYVDGVEVHNAKTKPREEQYNSTYRVVSVLTVLHQDWLNGKEYKCKVSNKALPAPIEKTISKAKGQPREPQVCTLPPSRDELTENQVSLTCLVKGFYPSDIAVEWESNGQPENNYKTTPPVLDSDGSFFLYSWLTVDKSRWQQGNVFSCSVMHEALHNHYTQKSLSLSPG
light: DIQMTQSPSSVSASVGDRVTITCRASQGISSWLAWYQQKPGKAPKLLIYAASSLQSGVPSRFSGSGSGTDFTLTISSLQPEDFATYYCQQGVSFPRTFGGGTKVEIKRTVAAPSVFIFPPSDEQLKSGTASVVCLLNNFYPREAKVQWKVDNALQSGNSQESVTEQDSKDSTYSLSSTLTLSKADYEKHKVYACEVTHQGLSSPVTKSFNRGEC
notes: also called AB1310-TriNKET®; AB1783 10F10 F3′ LH H(T62S) CHO opt
